Measured values taken from patent US20040043420A1, “Method of identifying conformation-sensitive binding peptides and uses thereof” (priority 2003, published 2004).
Substitutions are numbered along the chain they refer to. No end group written: not given here.

T1: ER α (UniProt P03372 1-595, limits assumed)
T1 construct: also called estrogen receptor α; ERα-ERE
T1 sequence (looked up): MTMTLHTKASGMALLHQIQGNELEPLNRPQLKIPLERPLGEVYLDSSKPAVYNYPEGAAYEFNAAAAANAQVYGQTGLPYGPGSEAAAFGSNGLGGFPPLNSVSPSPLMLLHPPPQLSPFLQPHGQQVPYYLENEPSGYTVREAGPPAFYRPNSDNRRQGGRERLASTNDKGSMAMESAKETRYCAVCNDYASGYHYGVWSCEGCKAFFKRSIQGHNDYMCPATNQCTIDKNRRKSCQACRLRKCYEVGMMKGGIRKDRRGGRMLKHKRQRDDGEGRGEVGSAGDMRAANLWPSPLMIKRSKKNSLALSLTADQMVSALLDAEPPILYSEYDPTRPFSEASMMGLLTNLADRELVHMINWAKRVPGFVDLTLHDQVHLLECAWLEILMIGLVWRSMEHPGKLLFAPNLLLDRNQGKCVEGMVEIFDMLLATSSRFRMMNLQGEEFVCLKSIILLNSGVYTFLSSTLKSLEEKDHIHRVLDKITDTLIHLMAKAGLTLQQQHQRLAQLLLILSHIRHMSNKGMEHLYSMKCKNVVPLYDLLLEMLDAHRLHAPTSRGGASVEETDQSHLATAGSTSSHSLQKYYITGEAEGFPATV

T2: estrogen receptor (ER) α as a carboxy-terminal fusion to the Gal4-activation domain (yeast, UniProt P03372 1-595, limits assumed)
T2 sequence (looked up): T1 sequence (looked up)

T3: pVP16-AR (HSV), P10275
T3 chain: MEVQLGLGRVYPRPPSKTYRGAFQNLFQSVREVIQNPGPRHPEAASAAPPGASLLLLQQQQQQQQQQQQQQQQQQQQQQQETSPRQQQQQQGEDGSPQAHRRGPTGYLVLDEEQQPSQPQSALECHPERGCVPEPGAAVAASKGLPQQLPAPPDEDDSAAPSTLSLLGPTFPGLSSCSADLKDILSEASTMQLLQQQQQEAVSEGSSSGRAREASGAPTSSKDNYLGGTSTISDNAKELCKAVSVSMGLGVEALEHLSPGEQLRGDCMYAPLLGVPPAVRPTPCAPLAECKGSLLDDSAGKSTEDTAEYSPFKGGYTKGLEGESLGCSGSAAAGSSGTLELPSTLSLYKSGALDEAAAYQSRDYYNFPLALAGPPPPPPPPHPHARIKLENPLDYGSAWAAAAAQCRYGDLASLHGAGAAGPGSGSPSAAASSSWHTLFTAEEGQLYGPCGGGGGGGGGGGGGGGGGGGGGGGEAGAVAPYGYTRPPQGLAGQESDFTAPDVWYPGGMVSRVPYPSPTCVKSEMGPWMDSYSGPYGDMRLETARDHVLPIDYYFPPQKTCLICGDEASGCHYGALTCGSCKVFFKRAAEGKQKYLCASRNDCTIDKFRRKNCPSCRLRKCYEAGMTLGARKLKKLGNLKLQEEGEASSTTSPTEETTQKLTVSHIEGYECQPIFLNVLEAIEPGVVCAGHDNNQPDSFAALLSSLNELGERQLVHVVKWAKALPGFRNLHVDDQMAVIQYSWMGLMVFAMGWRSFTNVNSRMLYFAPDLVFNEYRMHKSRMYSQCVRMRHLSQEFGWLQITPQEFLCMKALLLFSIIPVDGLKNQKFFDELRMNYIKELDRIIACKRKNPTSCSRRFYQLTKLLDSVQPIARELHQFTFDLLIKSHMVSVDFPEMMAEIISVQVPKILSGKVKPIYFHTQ

T4: Gal4 transcriptional activation domain (AD) fused in frame with AR (yeast), P10275
T4 chain: T3 chain

B1: B6F3 (peptide)
chain: MKLLSSIEQACDICRLKKLKCSKEKPKCAKCLKNNWECRYSPKTKRSPLTRAHLTEVESRLERLEQLFLLIFPREDLDMILKMDSLQDIKALLTGLFVQDNVNKDAVTDRLASVETDMPLTLRQHRISATSSSEESSNKGQRQLTVSEFFRATHLLRLLRTDSALDLQPS
B2: B2G1 (peptide)
chain: B1 chain with A152L, T153R, H154R, L156D, R160Q, T161D, D162S, S163F, A164L
B3: B4F6 (peptide)
chain: MKLLSSIEQACDICRLKKLKCSKEKPKCAKCLKNNWECRYSPKTKRSPLTRAHLTEVESRLERLEQLFLLIFPREDLDMILKMDSLQDIKALLTGLFVQDNVNKDAVTDRLASVETDMPLTLRQHRISATSSSEESSNKGQRQLTVSEFSGVPILHMLLMLPSSLDLQPS
B4: B5A2 (peptide)
chain: B3 chain with S150G, G151C, V152S, P153A, H156R, M157Y, M160R, L161S, S163R, S164D
B5: B8E9, P04386 1-147 (peptide)
chain: MKLLSSIEQACDICRLKKLKCSKEKPKCAKCLKNNWECRYSPKTKRSPLTRAHLTEVESRLERLEQLFLLIFPREDLDMILKMDSLQDIKALLTGLFVQDNVNKDAVTDRLASVETDMPLTLRQHRISATSSSEESSNKGQRQLTVSEFQQCMCAEVKSWLGGSLDLQPS
modifications: not checked
B6: B8H3, P04386 1-147 (peptide)
chain: MKLLSSIEQACDICRLKKLKCSKEKPKCAKCLKNNWECRYSPKTKRSPLTRAHLTEVESRLERLEQLFLLIFPREDLDMILKMDSLQDIKALLTGLFVQDNVNKDAVTDRLASVETDMPLTLRQHRISATSSSEESSNKGQRQLTVSEFHSRLRVEVVSWGIGSTCSQANSGRISYDL
modifications: not checked
B7: B5G11, P04386 1-147 (peptide)
chain: MKLLSSIEQACDICRLKKLKCSKEKPKCAKCLKNNWECRYSPKTKRSPLTRAHLTEVESRLERLEQLFLLIFPREDLDMILKMDSLQDIKALLTGLFVQDNVNKDAVTDRLASVETDMPLTLRQHRISATSSSEESSNKGQRQLTVSEFRSSVFEQMYLCTGGSLDLQPS
modifications: not checked

Each binder was assayed against T1, ER α (assay: phage isolated on ERα on plastic; Tamoxifen).
Wherever Fold Induction (ligand-induced β-galactosidase, two-hybrid) is given: test concentration or dose not given here.

| Binder | binding result |
| --- | --- |
| SSWHSRWDLALGFSR [17PT] | binds |
| SSSATSIKVQYQISR [15PT] | binds |
| SSRMGHVWYDWTFSR [5PT] | binds |
| SRDNCGAGLWAGCSR [19PT] | binds |
| SSSPWWSFNLRDMSR [12PT] | binds |
| SSGYWGGWDYGAGSR [18PT] | binds |
| SSGRYDPFVLNAASR [11PT] | binds |
| SSKYVFGFQVAGGSR [7PT] | binds |
| SSYLTLGKSMMAISR [16PT] | binds |
| SSRLLGDFGGSVVSR [6PT] | binds |
| SSWPYLPKREEWASR [13PT] | binds |
| SSSWSYGKPTFLSSR [9PT] | binds |
| SSGWIEQKLRGSFSR [14PT] | binds |
| SRDTGDMWWGRGGSR [10PT] | binds |
| SSWAGIKFGKPPHSR [8PT] | binds |

These binders were tested against T2, estrogen receptor (ER) α as a … (assay: cell-based or functional assay).

| Binder | Fold Induction (ligand-induced β-galactosidase, two-hybrid) [fold] |
| --- | --- |
| B1 | 3 |
| B2 | 12 |
| B3 | 5 |
| B4 | 3 |

Molecular target: T3, pVP16-AR (HSV), P10275
Assay: cell-based or functional assay

| Binder | luciferase (mammalian two-hybrid, Huh-7), CYP. (Relative Light Units) | luciferase (mammalian two-hybrid, Huh-7), DHT (Relative Light Units) | luciferase (mammalian two-hybrid, Huh-7), MPA (Relative Light Units) | luciferase (mammalian two-hybrid, Huh-7), RU486 (Relative Light Units) | luciferase (mammalian two-hybrid, Huh-7), no compound (Relative Light Units) |
| --- | --- | --- | --- | --- | --- |
| B5 | 16 | 19.6 | 18.5 | 10.2 | 0.209 |
| B6 | 10.5 | 11.6 | 11.3 | 3.88 | 0.132 |
| B7 | 4.46 | 15.8 | 8.03 | 0.105 | 0.0503 |

Molecular target: T4, Gal4 transcriptional activation domain …
Assay: cell-based or functional assay

| Binder | Fold induction (yeast two-hybrid) [fold] | β-galactosidase activity (yeast two-hybrid), CPA | β-galactosidase activity (yeast two-hybrid), DHT | β-galactosidase activity (yeast two-hybrid), No Lig | β-galactosidase activity (yeast two-hybrid), RU |
| --- | --- | --- | --- | --- | --- |
| B5 | 4 | 0.563 | 1.75 | 0.499 | 0.8 |
| B6 | 22 | 0.393 | 3.81 | 0.174 | 0 |
| B7 | 6 | 0.973 | 3.96 | 0.638 | 0.9 |

What follows are binders tested against T1, ER α (assay: phage isolated on ERα-ERE; Estradiol).

| Binder | binding result |
| --- | --- |
| SSLRCYLSSSKVDQWACSR (not fully specified; cysteine pairing not given here) [17E] | binds |
| HSHSPLLMALLAPPGG [15E] | binds |
| SSRLLACELMYEDADVCSR [8E] | binds |
| SRSLLMDMLMSDDYVTVSR [7E] | binds |
| SSCLREILLYGACSR (not fully specified; cysteine pairing not given here) [13E] | binds |
| SRLEYYLRLGTYESR [10E] | binds |
| SSYKPHSLLEWHLLGGTSR [18E] | binds |
| SRLVALLKSPWSVSR [4E] | binds |
| SRLEELLLMDFWRSR [5E] | binds |
| SSKLWQLLSSPIDSR [6E] | binds |
